Experimental data reported in patent publication US10017734B2, “Method for producing dopaminergic neurons” (TAKEDA PHARMACEUTICAL COMPANY LIMITED, priority 2013, dated 2018).

What was measured:
[1] = test system: floor plate cells induced from human iPS cell (253G1 strain, 201B7 strain); test: Study of various MEK inhibitors (including FGFR inhibitor): NURR1 expression by quantitative RT-PCR on day 45; type: cell-based; conditions: for expression of NURR1: 253G1 strain, added to ascorbic acid and dbcAMP, 3 μM PD0325901, 3 μM PD184352, 10 μM SU5402
Description: Whether midbrain dopaminergic neuron can be induced in a medium containing any of PD184352 (Axon MedChem), SU5402 (FGF receptor (FGFR) inhibitor, Wako Pure Chemical Industries, Ltd.) and PD173074 (FGFR inhibitor, Axon MedChem) instead of PD0325901 in the aforementioned (A) Neuro/B27 was studied.
Floor plate cells were induced by a method similar to the methods described in Reference Examples 1 to 3, the medium was exchanged with Neuro/B27 added with (1) 3 factors of ascorbic acid, dbcAMP and PD0325901, (2) 2 factors of ascorbic acid and dbcAMP, (3) ascorbic acid, dbcAMP and 3 μM PD184352, (4) ascorbic acid, dbcAMP and 10 μM SU5402, or (5) ascorbic acid, dbcAMP and 0.1 μM PD173074 on day 13 of culture, and the cells were cultured at 37° C. under 5% CO2 for not less than 30 days. The medium was exchanged every 3-4 days during the above-mentioned culture periods. On day 45 of culture, the cells were recovered, and expression variation of NURR1 was examined. In 253G1 strain, the expression of NURR1 was elevated by the addition of PD0325901, PD184352 or SU5402 and, in 201B7 strain, the expression of NURR1 was elevated by the addition of all 4 kinds.

[2] = test system: TH/hNuc double positive cells in the mouse striatum; test: Transplantation of day 26 cells to mouse striatum, tissue staining for TH and hNuc; type: in vivo, NOD SCID mice
Experimental: Midbrain floor plate cells were induced by a method similar to the methods described in Reference Examples 1 to 3, the medium was exchanged with Neuro/B27 added with 0.1 mM ascorbic acid, 0.5 mM dbcAMP, 3 μM PD0325901 or 0.1 mM ascorbic acid, 0.5 mM dbcAMP, 3 μM PD0325901, 20 ng/ml activin A on day 12 of culture, and the cells were cultured for 14 days more (total 26 days). After culture, the cells were washed with PBS, and dispersed by treating with TrypLE Express (Life Technologies) at 37° C. for 10 min. The cell concentration was adjusted to 1×10^5 cells/μl with Neuro/B27 medium, and the cells were maintained on ice until transplantation.
A transplantation experiment to mouse striatum was performed as follows. Twelve 8-week-old male NOD SCID mice (Charles River Laboratories Japan, Inc.) were divided into a control group and an activin A group (6 mice per each group). The cells cultured with the addition of ascorbic acid, dbcAMP, PD0325901 were used for transplantation to the control group, and the cells cultured with the addition of ascorbic acid, dbcAMP, PD0325901, activin A were used for transplantation to the activin A group. The hair of the head surgical field of the mice was shaved under pentobarbital (50 mg/kg, ip) anesthesia, and isodine was applied. Several minutes later, the skin was disinfected by wiping off isodine with Menban immersed in 0.1% Osvan aqueous solution, and the mice were fixed on a brain stereotaxis apparatus (David Kopf, David Kopf Instruments in USA). The scalp was incised from the midline, periosteum was detached, and Bregma and Lambda of the mice were exposed. “The mouse brain in stereotaxic coordinates” was referred to for the coordinate of the striatum (AP: +0.5 mm; ML: +1.8 mm), a hole was made in the cranial bone with an electric drill (ϕ0.5 mm), Hamilton syringe was inserted from the surface of the cranial bone to the depth DV: −3.5 mm, and the cells (1×10^5 cells/μl, 2 μl) were transplanted over 10 min After transplantation, the incision on the head was sutured and the mice were allowed to recover. […]

[3] = test system: floor plate cells induced from human iPS cell (253G1 strain, 201B7 strain); test: TH and NURR1 expression by quantitative RT-PCR on day 26 of culture; type: cell-based
Experimental: Floor plate cells were induced by a method similar to the methods described in Reference Examples 1 to 3, the medium was exchanged with Neuro/B27 added with one or more kinds of 0.1 mM ascorbic acid, 0.5 mM dbcAMP, 3 μM PD0325901, and 20 ng/ml activin A (R&D), or Neuro/B27 without addition of ascorbic acid, dbcAMP, PD0325901, and activin A as a control on day 12 of culture, and the cells were cultured for 14 days more (total 26 days). The cells after culture were recovered, and the expression variation of TH and NURR1 was examined by a method similar to Reference Example 3. […] On the other hand, when ascorbic acid, dbcAMP and PD0325901 were added, the expression level was lower at the time point of day 26 of culture than the addition of ascorbic acid, dbcAMP and activin A.

[4] = test system: human iPS cell (253G1 strain, 201B7 strain); test: Floor plate cell marker expression by quantitative RT-PCR on day 13 of culture; type: cell-based; conditions: FGF8 added in addition to the 5 kinds (All+FGF8)
Experimental: The medium after preculture as described in the above-mentioned Reference Example 2 was exchanged with a differentiation induction medium containing factors inducing differentiation into floor plate cell (LDN193189 (0.5 μM, Axon MedChem B.V.), SB431542 (10 μM, Wako Pure Chemical Industries, Ltd.), purmorphamine (0.5 μM, Merck), SHH (200 ng/ml, R&D systems) and CHIR99021 (1 μM, Axon MedChem)) (day 0 of culture), and the cells were cultured at 37° C. under 5% CO2 for 5 days. Then, the medium was exchanged with a differentiation induction medium containing 0.5 μM LDN193189 and 1 μM CHIR99021, and the cells were cultured at 37° C. under 5% CO2 for 5-8 days (total 10-13 days). […]
To examine expression variation of floor plate cell marker due to the presence or absence of factors inducing differentiation into floor plate cell (LDN193189, SB431542, purmorphamine, SHH and CHIR99021), the cells on day 13 of culture were recovered, and total RNA fraction was purified using RNeasy (Qiagen). Using PrimeScript RT reagent kit (Takara Bio Inc.), cDNA was synthesized, quantitative RT-PCR was performed, and the gene expression levels of floor plate cell markers FOXA2 and LMX1A were measured. […]

Cc1c[nH]c(C=C2C(=O)Nc3ccccc32)c1CCC(=O)O [SU5402, 3-[4-methyl-2-(2-oxo-1,2-dihydro-indol-3-ylidenemethyl)-1H-pyrrol-3-yl]-propanoic acid]
expression of NURR1 [1]: elevated

O=C(NOCC1CC1)c1ccc(F)c(F)c1Nc1ccc(I)cc1Cl [PD184352, 2-(2-chloro-4-iodophenylamino)-N-cyclopropylmethoxy-3,4-difluorobenzamide]
expression of NURR1 [1]: elevated

CCCS(=O)(=O)Nc1ccc(F)c(C(=O)c2c[nH]c3ncc(-c4ccc(Cl)cc4)cc23)c1F [PLX4032]
effect on expression of NURR1 ([1]; strain and concentration not given): no effect

B1: activin A: peptidic cell proliferation and differentiation factor belonging to the TGFβ family; activator of activin receptor-like kinase-4,7 (protein, UniProt P08476 311-426, looked up)
Inhibin beta A chain: GLECDGKVNICCKKQFFVSFKDIGWNDWIIAPSGYHANYCEGECPSHIAGTSGSSLSFHSTVINHYRMRGHSPFANLKSCCVPTKLRPMSMLYYDDGQNIIKKDIQNMIVEECGCS
modifications: Inhibin beta A chain
TH/hNuc double positive cells ([2]; 4 weeks after transplantation to mouse striatum): not less than 40% | TH/hNuc double positive cells ([2]; 8 weeks after transplantation to mouse striatum): not less than 50% | TH/hNuc double positive cells, change as compared to 8 weeks ([2]; 12 weeks after transplantation to mouse striatum): did not show a remarkable increase | expression of TH and NURR1 ([3]; 20 ng/ml activin A alone): scarcely elevated | expression of TH and NURR1 ([3]; activin A added together with ascorbic acid and dbcAMP): increased remarkably

B2: FGF8: growth factor, fibroblast growth factor-8 (protein, UniProt P55075 23-233, looked up)
Fibroblast growth factor 8: QEGPGRGPALGRELASLFRAGREPQGVSQQHVREQSLVTDQLSRRLIRTYQLYSRTSGKHVQVLANKRINAMAEDGDPFAKLIVETDTFGSRVRVRGAETGLYICMNKKGKLIAKSNGKGKDCVFTEIVLENNYTALQNAKYEGWYMAFTRKGRPRKGSKTRQHQREVHFMKRLPRGHHTTEQSLRFEFLNYPPFTRSLRGSQRTWAPEPR
expression of FOXA2 and LMX1A [4]: scarcely changed
